Experiments:
[1] = biological target: AviTag-His6-OAZ-GSY-SPM-Ctag (wt, with C175A) (human | Neisseria meningitidis serogroup B (strain MC58)) (UniProt Q9JYV5); assay: SPR; Biacore T200; biotinylated AviTag-OAZ-GSY-SPM variants immobilised with the Biotin CAPture Kit, ODC flowed over; HBS with 2 mM TCEP and 0.02 mM PLP; 25 °C; 1:1 binding model
[2] = biological target: His6-OAZ-GSY-SPM-Ctag (human | Neisseria meningitidis serogroup B (strain MC58)) (UniProt Q9JYV5); assay: cross-linking; NeissLock: Ca2+-induced aspartic anhydride on OAZ reacts with the docked partner; purified proteins mixed at 10 µM each or as indicated (AZI 2.5 µM each; Fig. 4b 0.5 µM each; 30 µM ODC with 10 µM OAZ-Y-SPM), 37 °C, HBS pH 7.4 with 2 mM TCEP, 10 mM CaCl2 unless varied (pH 6.5-8.5, 0.5-10 mM Ca2+, TBS, lyophilised probe); SDS-PAGE with Coomassie, intact ESI-MS, tryptic LC-MS/MS

B1: His6-ODC-Ctag (human Ornithine Decarboxylase) (enzyme)
chain: NNFGNEEFDCHFLDEGFTAKDILDQKINEVSSSDDKDAFYVADLGDILKKHLRWLKALPRVTPFYAVKCNDSKAIVKTLAATGTGFDCASKTEIQLVQSLGVPPERIIYANPCKQVSQIKYAANNGVQMMTFDSEVELMKVARAHPKAKLVLRIATDDSKAVCRLSVKFGATLRTSRLLLERAKELNIDVVGVSFHVGSGCTDPETFVQAISDARCVFDMGAEVGFSMYLLDIGGGFPGSEDVKLKFEEITGVINPALDKYFPSDSGVRIIAEPGRYYVASAFTLAVNIIAKKIVLKEQTGSDDEDESSEQTFMYYVNDGVYGSFNCILYDHAHVKPLLQKRPKPDEKYYSSSIWGPTCDGLDRIVERCDLPEMHVGDWMLFENMGAYTVAAASTFNGFQRPTIYYVMSGPAWQLMQQFQ
Kd [1]: 120 nM
coupling yield after 2 h, lyophilized OAZ-GSY-SPM [2]: 51%
coupling yield after 2 h, untreated control [2]: 48%
coupling yield at 0.5 mM Ca2+ compared to 10 mM Ca2+ after 2 h [2]: 78%
coupling yield in TBS compared to HBS after 2 h [2]: 95%
half-time of the conjugation reaction at pH 7.0 [2]: < 2 min

B2: ODC ΔN ΔC 4KR with K92 re-introduced (enzyme)
chain: DCHFLDEGFTAKDILDQKINEVSSSDDKDAFYVADLGDILKKHLRWLKALPRVTPFYAVKCNDSRAIVRTLAATGTGFDCASKTEIQLVQSLGVPPERIIYANPCKQVSQIRYAANNGVQMMTFDSEVELMKVARAHPKAKLVLRIATDDSKAVCRLSVKFGATLRTSRLLLERAKELNIDVVGVSFHVGSGCTDPETFVQAISDARCVFDMGAEVGFSMYLLDIGGGFPGSEDVKLKFEEITGVINPALDKYFPSDSGVRIIAEPGRYYVASAFTLAVNIIAKKIVLKEQTGSDDEDESSEQTFMYYVNDGVYGSFNCILYDHAHVKPLLQKRPKPDEKYYSSSIWGPTCDGLDRIVERCDLPEMHVGDWMLFENMGAYTVAAASTFNGFQRPTIYYVMSGPAWQLMQQFQ
conjugation compared to wild-type ODC [2]: 89%
